From patent US20220324938A1 (published 2022)
Values belong to the binder of their own block, whether it stands above or below them.

Experiments:
Experiment in all cases: multimer staining
[1] = target: T1, MAGE-A3 peptide on HLA-B*18:01 (human)
T1 peptide: MEVDPIGHLY

[2] = target: T2, MART1 peptide on HLA-B*18:01 (human)
T2 peptide: EEAAGIGIL

[3] = target: T3, SSX2 peptide on HLA-A*02:01 (human)
T3 peptide: KASEKIFYV

[4] = target: T4, MAGE-A1 peptide on HLA-B*07:02 (human)
T4 peptide: RVRFFFPSL

- binding result [1]: recognises
B1: B*18:01/MAGE-A3167-176 TCR (TCR, V domains shown)
Valpha: AQKVTQAQTEISVVEKEDVTLDCVYETRDTTYYLFWYKQPPSGELVFLIRRNSFDEQNEISGRYSWNFQKSTSSFNFTITASQVVDSAVYFCALEVRSSASKIIFGSGTRLSIRP
Vbeta: GAVVSQHPSWVICKSGTSVKIECRSLDFQATTMFWYRQFPKQSLMLMATSNEGSKATYEQGVEKDKFLINHASLTLSTLTVTSAHPEDSSFYICSANPRTTLYEQYFGPGTRLTVT

- binding result [3]: recognises
B3: A*02:01/SSX241-49 TCR (TCR, V domains shown)
Valpha: KQEVTQIPAALSVPEGENLVLNCSFTDSAIYNLQWFRQDPGKGLTSLLLIQSSQREQTSGRLNASLDKSSGRSTLYIAASQPGDSATYLCAVEPMEYGNKLVFGAGTILRVKS
Vbeta: DGGITQSPKYLFRKEGQNVTLSCEQNLNHDAMYWYRQDPGQGLRLIYYSQIVNDFQKGDIAEGYSVSREKKESFPLTVTSAQKNPTAFYLCASSALFSGANVLTFGAGSRLTVL

Continued, binder first:

B2: B*18:01/MART125-33 TCR (TCR, V domains shown)
Valpha: GQNIDQPTEMTATEGAIVQINCTYQTSGFNGLFWYQQHAGEAPTFLSYNVLDGLEEKGRFSSFLSRSKGYSYLLLKELQMKDSASYLCAVYGGATNKLIFGTGTLLAVQP
Vbeta: NAGVMQNPRHLVRRRGQEARLRCSPMKGHSHVYWYRQLPEEGLKFMVYLQKENIIDESGMPKERFSAEFPKEGPSILRIQQVVRGDSAAYFCASSPHAGGVDEKLFFGSGTQLSVL
- binding result [2]: recognises

B4: B*07:02/MAGE-A1289-297 TCR (TCR, V domains shown)
Valpha: AQKVTQAQTEISVVEKEDVTLDCVYETRDTTYYLFWYKQPPSGELVFLIRRNSFDEQNEISGRYSWNFQKSTSSFNFTITASQVVDSAVYFCALSESYSGAGSYQLTFGKGTKLSVIP
Vbeta: DTGVSQNPRHKITKRGQNVTFRCDPISEHNRLYWYRQTLGQGPEFLTYFQNEAQLEKSRLLSDRFSAERPKGSFSTLEIQRTEQGDSAMYLCASSLASGSNQPQHFGDGTRLSIL
- binding result [4]: recognises
